Measurements reported in article PMC5193401, “Redox Balance in Lactobacillus reuteri DSM20016: Roles of Iron-Dependent Alcohol Dehydrogenases in Glucose/ Glycerol Metabolism” (PLoS ONE, 2016).

B1: PduQ-His6 (Limosilactobacillus reuteri subsp. reuteri) (protein)
chain: MEKYSMPTRIYSGTDSLKELETLNNERILLVCDSFLPGSDTLKEIESHIKDNNKCEIFSDVVPDPPLDKIMEGVQQFLKLKPTIVIGIGGGSALDTGKGIRFFGEKLGKCKINEYIAIPTTSGTGSEVTNTAVISDTKEHRKIPILEDYLTPDCALLDPKLVMTAPKSVTAYSGMDVLTHALESLVAKDANLFTVALSEEAIDAVIKHLVECYRHGDNVDARKIVHEASNIAGTAFNIAGLGICHSIAHQLGANFHVPHGLANTMLLPYVIAYNAEHSEEALHKFAIAAKKAGIAAPGVGDRLAVKRLIAKIREMARQMNCPMTLQAFGVDPAKAEELADTVVANAKKDATFPGNPVVPSDNDLKMVYEAIIR
notes: full length 373 residues (40361 Da), His6 tag from pET21a kept, E. coli BL21(DE3), Ni-NTA purified
B2: ADH7-His6 (Limosilactobacillus reuteri subsp. reuteri) (protein)
chain: MNRQFDFLMPSVNFFGPGVIAKIGDRAKMLNMHKPLIVTTEGLSKIDNGPVKQTVASLEKAGVDYAVFTGAEPNPKIRNVQAGKKMYQDENCDSIITVGGGSAHDCGKGIGIVLTNGDDISKLAGIETLKNPLPPLMAVNTTAGTGSELTRHAVITNEKTHLKFVVVSWRNIPLVSFNDPMLMLDIPKDITAATGCDAFVQAIEPYVSVDHNPITDSQCKEAIQLIQTALPEVVANGHNIEARTKMVEAEMLAGMAFNNANLGYVHAMAHQLGGQYDAPHGVCCALLLTTVEEYNLIACPERFAELAKVMGFDTTGLTLYEAAQKSIDGMREMCRLVGIPSSIKEIGAKPEDFEMMAKNALKDGNAFSNPRKGTVEDIVKLYQKAYDGIY
notes: full length 390 residues (42181 Da), His6 tag from pET21a kept, E. coli BL21(DE3), Ni-NTA purified

What was measured:
Test in all cases: purified protein
Format in all cases: biochemical, Limosilactobacillus reuteri
purified protein [1] = substrate: O=CCCO; conditions: 3-HPA reduction (standard 0.2 mM NADH), 50 mM potassium phosphate pH 7.0, 30°C, 3-HPA produced from glycerol by resting cells (equilibrates with hydrate and dimer), pH 7.0
purified protein [2] = substrate: NC(=O)C1=CN([C@@H]2O[C@H](COP(=O)(O)OP(=O)(O)OC[C@H]3O[C@@H](n4cnc5c(N)ncnc54)[C@H](O)[C@@H]3O)[C@@H](O)[C@H]2O)C=CC1; conditions: 3-HPA reduction (standard 100 mM 3-HPA), 50 mM potassium phosphate pH 7.0, 30°C, pH 7.0, varied: cofactor
purified protein [3] = substrate: NC(=O)c1ccc[n+]([C@@H]2O[C@H](COP(=O)(O)OP(=O)(O)OC[C@H]3O[C@@H](n4cnc5c(N)ncnc54)[C@H](O)[C@@H]3O)[C@@H](O)[C@H]2O)c1; conditions: 1,3-PDO oxidation (standard 500 mM 1,3-PDO), 50 mM Tris-HCl pH 9.0, 30°C, pH 9.0, varied: cofactor

Protein	Km (purified protein [1]) [mM]	Vmax (purified protein [1]) [µmol/min/mg]	kcat (purified protein [1]) [s⁻¹]	kcat/Km (purified protein [1]) [M⁻¹ s⁻¹]	Km (purified protein [2]) [mM]	Vmax (purified protein [2]) [µmol/min/mg]	kcat (purified protein [2]) [s⁻¹]	kcat/Km (purified protein [2]) [M⁻¹ s⁻¹]	Km (purified protein [3]) [mM]	Vmax (purified protein [3]) [µmol/min/mg]	kcat (purified protein [3]) [s⁻¹]	kcat/Km (purified protein [3]) [M⁻¹ s⁻¹]	Km (purified protein [2]; error exceeds value) [mM]	Vmax (purified protein [2]; error exceeds value) [µmol/min/mg]	kcat (purified protein [2]; error exceeds value) [s⁻¹]	kcat/Km (purified protein [2]; error exceeds value) [M⁻¹ s⁻¹]
B1	14.5 ± 1.7	14.8	9.9 ± 0.6	640	0.04 ± 0.01	12.6	8.5 ± 0.5	237000	0.8 ± 0.1	3.9	2.6 ± 0.1	3490	–	–	–	–
B2	9.9 ± 1.1	29.3	13.2 ± 3	1330	–	–	–	–	1.2 ± 0.1	4.1	3.2 ± 0.9	2670	0.04 ± 0.12	33	11.3 ± 1.9	282000
